Data reported in patent US20160376333A1 (University of Washington, published 2016).

T1: Epstein-Barr virus BHRF1 a.a. 1-161 with C-terminal avi-6his tag (Epstein-Barr virus)
T1 construct: also called EBV BHRF1; BHRF1-biotin
T1 chain: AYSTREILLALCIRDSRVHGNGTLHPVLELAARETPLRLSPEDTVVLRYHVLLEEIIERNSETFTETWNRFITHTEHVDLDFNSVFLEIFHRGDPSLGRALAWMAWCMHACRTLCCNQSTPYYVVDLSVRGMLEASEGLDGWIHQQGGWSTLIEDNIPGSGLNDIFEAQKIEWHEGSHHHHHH

B1: human Bcl-XL a.a. 1-205 with C-terminal avi-6his tag (other)
chain: SQSNRELVVDFLSYKLSQKGYSWSQFSDVEENRTEAPEGTESEMETPSAINGNPSWHLADSPAVNGATGHSSSLDAREVIPMAAVKQALREAGDEFELRYRRAFSDLTSQLHITPGTAYQSFEQVVNELFRDGVNWGRIVAFFSFGGALCVESVDKEMQVLVSRIAAWMATYLNDHLEPWIQENGGWDTFVELYGNNAAAESRKGLNDIFEAQKIEWHEGSHHHHHH
notes: also called BCL2L1

What was measured:
[1] = molecular target: T1, Epstein-Barr virus BHRF1 a.a. 1-161 …; assay: yeast display library, FACS sort at 100 nM BHRF1, deep sequencing
[2] = molecular target: T1, Epstein-Barr virus BHRF1 a.a. 1-161 …; assay: yeast display library, FACS sort at 400 nM BHRF1, deep sequencing
[3] = molecular target: T1, Epstein-Barr virus BHRF1 a.a. 1-161 …; assay: yeast surface display; BHRF1 titrated on clonal yeast showing the design, fluorescence by flow cytometry (apparent KD)
[4] = molecular target: T2, Bim-BH3 motif fused to the C-terminus of maltose-binding protein (MBP) (human, UniProt O43521 141-166); assay: BLI, biotinylated target on streptavidin sensor, MBP-Bim-BH3 in solution
T2 construct: domain: Bim-BH3 motif; also called MBP-Bim-BH3
T2 sequence (O43521 141-166 limits assumed): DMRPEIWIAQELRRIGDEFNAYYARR

[5] = molecular target: B1; assay: initial BLI screening (column 'Binds target?')

Binder	Log2 enrichment ratio [1]	Log2 enrichment ratio [2]	binding result [5]	also measured
Index 01 (designed binder) GKRLEETVEETERRLREALREVYLLILLLAEEAKKKDLKEQNRHEYVFKWIAFMLMAIGDIFNIAEESKRRLDLFAKWGLHDRNKIDEAKKKIDKLALEAIERAKKYGDWFLNELDKG	4.02 log2	3.54 log2		Kd [3]: 39 nM
Index 02 (designed binder) GKSLLGIALEALEEAKRDLEKAKKQMEEMLKKKWKFDTTRDLKARASAEWIAAALKAIGDRFNAKLLIELGLDELFNKGLITQDIKEDIKRRAEEIFEKIERLIKQAIKDKDRFEKLG	3.92 log2	3.43 log2		Kd [3]: 110 nM
B1				Kd [4]: 1.56 nM
human Bcl-B a.a. 11-175 with C-terminal avi-6his tag (other, also called BCL2L10) ADPLRERTELLLADYLGYCAREPGTPEPAPSTPEAAVLRSAAARLRQIHRSFFSAYLGYPGNRFELVALMADSVLSDSPGPTWGRVVTLVTFAGTLLERGPLVTARWKKWGFQPRLKEQEGDVARDCQRLVALLSSRLMGQHRAWLQAQGGWDGFCHFFRTPFPGLNDIFEAQKIEWHEGSHHHHHH				Kd [4]: 7 nM
X-CDP01 (designed binder) ADPKKVLDKAKDQAENRVRELKQKLEELYKEARKLDLTQEMRRELQARYIAAMLAAAGDIMEAIQQAKNEADKLKKAGLVNSQQLDELKRRLEELAKEAARKAEDYGREFQLKLEY			binds	
X-CDP02 (designed binder) ADPKKVLDKAKDQAENRVRELKQKLEELYKEARKLDLTQEMRKELVARYIAAMLAAAGDIVQAIQDAKNEADKLKKAGLVNSQQLDELKRRLEELAKEAARKATDYGREFQLKLEY			binds	
X-CDP10 (designed binder) ADPKKVLDKAKDQAENRVRELKQKLEELYKEARKLDLTQEMRRELRERYIAAMLAAAGDLWYAITQAKREADKLKKAGLVNSQQLDELKRRLEELLEEAARKAEDYGEEFRLKLEY			binds	
X-CDP11 (designed binder) ADPKKVLDKAKDQAENRVRELKQKLEELYKEARKLDLTQEMRRELRDRYIAAMLAAIGDLFNAIQWAKQEADKLKKAGLVNSQQLDELKRRLEELAEEAARKAEDYGEEFKLKLEY			binds	
X-CDP03 (designed binder) ADPKKVLDKAKDQAENRVRELKQKLEELYKEARKLDLTQEMRRELRNRAIAAILQAIGDLLNAIQQAKDEADKLKKAGLVNSQQLDELKRRLEELQNEAAEKAADYGEEFWLKLEY			binds	
X-CDP04 (designed binder) ADPKKVLDKAKDQAENRVRELKQKLEELYKEARKLDLTQEDRKRLLLQYIAAMLAAIGDLENAIRWAKREADKLKKAGLVNSQQLDELKRRLEELAKEAAEKAADYGEEFNLKLEY			binds	
X-CDP05 (designed binder) ADPKKVLDKAKDQAENRVRELKQKLEELYKEARKLDLTQEMRRQLRDQYIAAMLAAIGDLLNAIMQAKREADKLKKAGLVNSQQLDELKRRLEELEEEAAQKAADYGQEFLLKLEY			binds	
X-CDP08 (designed binder) ADPKKVLDKAKDRAENRVRKLKKELEKLYKEARKLDLTQEQRDRIINAAIAAMIAAFGDIFHAIMEAKEEARKLKKAGLVNSQQLDELKRRLDELDEEAAQRAEKLGKEFRLKFEY			binds	
X-CDP06 (designed binder) ADPKKVLDKAKDRAENRVRELKKKLEKLYKEARKLDLTQEQRNKIINAAMAAMIAAFGDIFHAIQEAKEEAKKLKKAGLVNSQQLDELKRRLDELDEEAAQRAEKLGKEFNLKFEY			binds	
Index 29 (designed binder) GEVAKDLAKLAIDLAKKLMLLFWWFFELFKLFAKFTDEWQEWKARGTAFWIALSLAAIGDFFNARRRAELQAREGKQKGLTTEEKEKRWREHLKEAWEKLEKISRLAFLFAQEAENQG	-1.66 log2	-2.43 log2		
Index 30 (designed binder) GSRWFDAEDKMRERKDRAILQLLFMLWIIFYILWYGDDTEEAKRKAMAAWIALALIGIGDIFNAEAEFLEELERAIKQGQVSDQLKEELLKRMEDDKRDLEKRLYEFLLKALLQWMQG	-2.58 log2	-4.1 log2		
Index 31 (designed binder) GDQADKIKDKIKDEAKKKADEFKKRLEQFREYLEKVYSDDLKEIYLTIFWIALALMLIGDAFNEKMLLEWEFKERKKRNLRHEEELKEEKKKREEAEKALEWASKYASQVGKEAAEEG	-3.55 log2	-4.21 log2		
Index 32 (designed binder) GGDENKLKDYVKDEIERGLNEIEDLARKIEQLARRFFPKDEERMKFTMWWIAAALMAIGDIFNAKEYARERAEEIRRKGLRREEEARRIEKFIEEEAEKAAKKAAKLGDHLAEELFRG	-2 log2	-2.56 log2		
Index 33 (designed binder) GKQWQEAFEEARRRIEEKAREFEDRAKKEALLHLFFIPHDKEIADNSKKWIAWALMLIGDIFNLEEEAAERARRHVKRGEISEDDAKQIRKRLQEQAKRAAWWMRYWGEESAKFAFIG	-4.18 log2	-3.85 log2		
Index 34 (designed binder) GKFKKLFENYAELFARWVADKGKKLAEELREKAEKGLKLQKLWLIFTMIWIAIMLMSIGDAFNLALLAELWVQAAKNYGWLRDNEADEAEDRVRKFADEASRRALEKGLEALRKILEG	-3.41 log2	-2.21 log2		
Index 35 (designed binder) GGDGVKELEELEKRKDEKKNKAEDRIKKFKDEAKYADDRTEDKEKLAHRWIALALDIIGDAFNLKEEARRRFLRHKFRGELDDSKKEYAEKEMKRFEDDVEKDAEELAQKAKEAFKEG	-3.51 log2	-3.29 log2		
Index 36 (designed binder) GYTKEWIRDRAKEELDRFADEAKDKADKIRDDFEKRDDKNQIAAELTKKWIAAELEAIGDAFNRAEEAKERLKKLLKLGLTRKEEAEEAAEKLEKLEKEASEKLSKIAHEVSKHDDQG	-3.6 log2	-3.65 log2		
Index 37 (designed binder) GDFWLKAIEIAGGRMLERARESWYRALYFILMVKLFYPSDDLRRIFTLRWIAESLKLIGDAFNLFELARELLELYYKYGWITLEKALKALWILLKLEEIFSKASKDLGERLAEEIERG	-3.13 log2	-2.14 log2		
